How the values were obtained:
[1] = tested on: eight serotypes of pneumococci; assay: MIC test on pneumococcal strains; format: cell-based, Streptococcus pneumoniae
Method: The MICs of enzymes and antibiotics were determined in a 96-well titration plate in triplicate. Briefly, the overnight pneumococcal culture was diluted with 2×THY to obtain a final concentration of 1×10^7 CFU/ml, and other bacterial species were diluted with 2-folded medium to 1×10^5 CFU/ml. 100 μl of the diluted bacterial culture was subjected into each well, mixing with the serial 2-fold diluted 100 μl of enzymes/antibiotics. PBS buffer was used as a negative control. The plates were sealed via parafilm and statically incubated at 37° C. incubator for 24 h. The MIC was defined as the lowest concentration of treatment that inhibited visible growth of the bacterium.
To further evaluate the activity of ClyX-1, MIC tests were performed against eight serotypes of pneumococci including penicillin-resistant strains and capsule-free mutant with information shown in FIG. 13. Penicillin and levofloxacin were tested as standards to benchmark the antimicrobial activity. All of the strains were sensitive to levofloxacin (MIC<=2). Only the two penicillin-resistant strains indicated MIC larger than 2 μg/ml (resistance). […] The MICs of ClyX-1 were lower than that of Cpl-1 and even levofloxacin, ranging from 0.13 μg/ml to 0.5 μg/ml.

[2] = tested on: S. pneumoniae D39; assay: Bactericidal assay on D39, ClyX-1 compared with Cpl-1 and PlyCA; format: cell-based, Streptococcus pneumoniae
Method: (§1) (a) Different concentrations of ClyX-1 and Cpl-1 were mixed with 10^6 overnight S. pneumoniae D39 culture for 5 min. The cells were then serial diluted and plated on the THY plates. Log killing was determined through the comparisons of PBS treatment and the enzymes treatment. (b) Female BALB/c mice were injected intraperitoneally with pneumococcus strain S. pneumoniae NS26 at a single dose at 2.95×10^7 colony forming units (CFU) per mouse. One hour after the infection, mice were intraperitoneally received a single dose of different treatments in different amount per mouse. The lines represent the percentage survival of mice for 10 days. The data was plotted as Kaplan-Meier survival curves and analyzed via the Log-rank (Mantel-Cox) test (*P<0.001; **P<0.0001);
(§2) With regard to bactericidal assay, bacterial cells were diluted to 2× rich media to generate a final concentration of 5.0×10^6 CFU/ml. 100 μl of the diluted bacterial culture was added into a 96-well titration plate in triplicate and mixed with 100 μl of sterile-filtered enzymes. Plates were sealed and incubated at 37° C. for 5-60 min. After the incubation, bacterial cells were serially diluted in 10-fold increments into sterile PBS and plated on THY/TSB agar. Log killing was calculated as follows: −log[(CFU under enzyme treatment)/(CFU under PBS treatment)].
Bactericidal assays were repeated using the three lysins at different concentrations (0.5 μg/ml to 50 μg/ml) on a different strain, D39 (FIG. 10a).

[3] = tested on: S. pneumoniae NS26; assay: Mouse systemic infection model, survival; format: in vivo, female BALB/c mice
Method: as §1
With regard to in vivo mouse infection models, mouse infection experiments were carried out in an ABSL-2 lab. In the mouse systemic infection model, female BALB/c mice (6-8 weeks old) were injected intraperitoneally with S. pneumoniae NS26 at a single dose of 2.95×10^7 CFU/mouse and divided randomly into multiple groups. Bacterial burden in blood and organs in mice 1 h post-infected were confirmed by plating on THY agar as described previously. One hour post-infection, these groups intraperitoneally received a single dose of 20, 40, or 80 μg/mouse of […] (n=10); 20, 40, or 80 μg/mouse of Cpl-1 (n=10); 100 μg/mouse of penicillin G (n=10); or an equal volume of PBS buffer (n=10). The survival data for all groups were recorded for 10 days.
To validate the in vitro bactericidal activity of ClyX-1, we applied a mouse systemic infection model to test the in vivo efficacy of the enzyme. Mice were challenged to a 2-days lethal-dose of 2.95×10^7 CFU. One hour after infection, the mice were intraperitoneally injected a single dose containing different amount of either ClyX-1 or Cpl-1 ranging from 20 μg-80 μg. The antibiotics control was 100 μg/mouse of penicillin G, and the negative control was as PBS, pH7.4 buffer. The mice were then observed and recorded for the survival data. All the mice treated with PBS buffer died within the first 2 days.

[4] = tested on: five strains of stationary phase S. pneumoniae; assay: Bactericidal activity of ClyX-3 on pneumococcal strains; format: cell-based, Streptococcus pneumoniae; conditions: 5 μg/ml; 5 min
Method: (a) Bactericidal effects of ClyX-3 against five strains of stationary phase S. pneumoniae. 5 μg/ml of enzymes were mixed with 10^6 bacterial cultures for 5 min. Log killing was determined through the comparisons of PBS treatment and enzymes treatment. (b) Bactericidal effects of ClyX-4 against stationary phase streptococci. 50 μg/ml of enzymes were mixed with 10^6 bacterial culture for 1 h. Log killing was determined through the comparisons of PBS treatment and enzymes treatment;
as §2
With regard to applying the design rationale to add a C′ terminal EAD such that two EADs are disposed at each side of the CBD, the process was used to engineer endolysins for increased activity. […]

[5] = tested on: S. pneumoniae ATCC TIGR 4; assay: Bacteriolytic (turbidity reduction) assay; format: cell-based, Streptococcus pneumoniae; conditions: 5 μg/ml; OD from 1.0 to 0.2 within the first 2 min; overnight culture
Method: In a bacteriolytic assay, bacterial culture (stationary phase) was harvested at 5,000 for 10 min at 4° C., washed twice and resuspended in PBS buffer, pH7.4. In a 96-well titration plate, the resuspended bacterial solution was mixed 1:1 (u/u) with endolysin to a final OD600 between 0.8 to 1.0. In each run, PBS was included as a negative control. Spectrophotometric readings (OD600) were taken every 15 s over 10 min on a spectrophotometer. Vmax was calculated as the slope of the linear portion and represented the endolysins activity. All experiments were conducted in triplicate to get the standard deviation.
Bacteriolytic capacity of ClyX-1 and ClyX-1 linkers were analyzed via the turbidity reduction assay against the overnight culture of S. pneumoniae ATCC TIGR 4. Both enzymes-induced lysis of the bacterial peptidoglycan caused a decrease in OD from 1.0 to 0.2 (80%) within the first 2 min of the turbidity assay at 5 μg/ml as shown in FIG. 9a. The linkers were the only difference between these two enzymes, and the unstructured region of PlyCA GyH, PlyCA CHAP, and Cpl-1 CBD provide optimal flexibility for enzymatical activity. High lytic activity correlated with data for bacterial survival after chimera treatment. ClyX-1 sterilized cultures for 5 min, causing a decrease in TIGR 4 viability of ˜6 log, at as low as 0.5 μg/ml (FIG. 9b). […]

C[C@H]1COc2c(N3CCN(C)CC3)c(F)cc3c(=O)c(C(=O)O)cn1c23 [levofloxacin]
MIC ([1]; all strains, 24 h, unit not given): <= 2

Penicillin
MIC ([1]; the two penicillin-resistant strains): > 2 µg/mL

B1: Cpl-1: parental endolysin derived from the streptococcal Cp-1 phage (protein, UniProt P15057 1-339, looked up)
Lysozyme: MVKKNDLFVDVSSHNGYDITGILEQMGTTNTIIKISESTTYLNPCLSAQVEQSNPIGFYHFARFGGDVAEAEREAQFFLDNVPMQVKYLVLDYEDDPSGDAQANTNACLRFMQMIADAGYKPIYYSYKPFTHDNVDYQQILAQFPNSLWIAGYGLNDGTANFEYFPSMDGIRWWQYSSNPFDKNIVLLDDEEDDKPKTAGTWKQDSKGWWFRRNNGSFPYNKWEKIGGVWYYFDSKGYCLTSEWLKDNEKWYYLKDNGAMATGWVLVGSEWYYMDDSGAMVTGWVKYKNNWYYMTNERGNMVSNEFIKSGKGWYFMNTNGELADNPSFTKEPDGLITVA
log reduction ([2]; 0.5 μg/ml, 5 min): < 1 log | concentration at which the bacteria culture was sterilized ([2]; within 5 min, tested 0.5 to 50 μg/ml): 50 µg/mL | time within which the mice had died ([3]; 20 μg single i.p. dose 1 h after infection): ≤ 5 days | mice rescued (survival) ([3]; 80 μg single i.p. dose 1 h after infection, 10 days): 20% | log reduction of tested pneumococcal strains [4]: ~2 logs

B2: ClyX-1 linkers: similar to ClyX-1 but with two extra native linkers in the PlyCA; Seq. ID No. 18 (protein)
chain: MSKKYTQQQYEKYLAQPANNTFGLSPQQVADWFMGQAGARPVINSYGVNASNLVSTYIPKMQEYGVSYTLFLMYTVFEGGGAGNWINHYMYDTGSNGLECLEHDLQYIHGVWETYFPPALSAPECYPATEDNAGALDRFYQSLPGRTWGDVMIPSTMAGNAWVWAYNYCVNNQGAAPLVYFGNPYDSQIDSLLAMGADPFTGGSITGDGKNPSVGTGNATVSASSECTMEEDDKPKTAGTWKQDSKGWWFRRNNGSFPYNKWEKIGGVWYYFDSKGYCLTSEWLKDNEKWYYLKDNGAMATGWVLVGSEWYYMDDSGAMVTGWVKYKNNWYYMTNERGNMVSNEFIKSGKGWYFMNTNGELADNPSFTKEPDGLITVALQQTNPNPDKPTVKSPGQNDLGSGSDRVAANLANAQAQVGKYIGDGQCYAWVGWWSARVCGYSISYSTGDPMLPLIGDGMNAHSIHLGWDWSIANTGIVNYPVGTVGRKEDLRVGAIWCATAFSGAPFYTGQYGHTGIIESWSDTTVTVLEQNILGSPVIRSTYDLNTFLSTLTGLITFK
modifications: Bacteriophage
notes: similar to ClyX-1 but with two extra native linkers in the PlyCA; ID No. 18
decrease in OD in turbidity assay [5]: 80%

B3: ClyX-3: the full-length Cpl-1 with an additional C′ terminal PlyC CHAP; Seq. ID No. 21 (protein)
chain: MVKKNDLFVDVSSHNGYDITGILEQMGTTNTIIKISESTTYLNPCLSAQVEQSNPIGFYHFARFGGDVAEAEREAQFFLDNVPMQVKYLVLDYEDDPSGDAQANTNACLRFMQMIADAGYKPIYYSYKPFTHDNVDYQQILAQFPNSLWIAGYGLNDGTANFEYFPSMDGIRWWQYSSNPFDKNIVLLDDEEDDKPKTAGTWKQDSKGWWFRRNNGSFPYNKWEKIGGVWYYFDSKGYCLTSEWLKDNEKWYYLKDNGAMATGWVLVGSEWYYMDDSGAMVTGWVKYKNNWYYMTNERGNMVSNEFIKSGKGWYFMNTNGELADNPSFTKEPDGLITVAGSDRVAANLANAQAQVGKYIGDGQCYAWVGWWSARVCGYSISYSTGDPMLPLIGDGMNAHSIHLGWDWSIANTGIVNYPVGTVGRKEDLRVGAIWCATAFSGAPFYTGQYGHTGIIESWSDTTVTVLEQNILGSPVIRSTYDLNTFLSTLTGLITFK
modifications: Bacteriophage
notes: the full-length Cpl-1 with an additional C′ terminal PlyC CHAP; ID No. 21
activity by MIC compared with parental endolysin and ClyX-1 [1]: better than parental endolysins | log reduction of tested pneumococcal strains [4]: ~4 logs

— patent US10975365B2, “Di-enzymatic chimeric endolysin” (Government of the United States of America, as represented …, priority 2018, dated 2021)
